Source: patent US5792742A, “Fibrin-binding peptide fragments of fibronectin” (New York University, priority 1994, dated 1998)
[ ]: non-standard residue; d: D form. pGlu = O=C1CC[C@@H](C(=O)O)N1

Legend:
fibrin [1] = test: Fibrin-SEPHAROSE affinity chromatography (binding and elution); set-up: species or system bovine
Description: Bovine fibrinogen was cross-linked to CNBr-activated SEPHAROSE™ (5 mg/ml beads) according to the manufacturer's instructions. Coupled fibrinogen was subsequently converted to fibrin by incubation with human thrombin to a final concentration of 5 NIH units/ml and 100 K.I. (kallikrein inhibitory) units/ml of aprotinin (in 0.05M Tris-HCI buffer, pH 7.6, containing 0.1M NaCl and 0.01M EDTA) for three hours, at room temperature (Gold, et al. (1983) Biochemistry 22, 4113-4119).
1.0M NaCl in 0.05M tris buffer, pH 8.0.
The fibrin-binding activity of the proteolytically derived 25.9 kDa fragment of Fn was determined by its ability to bind to a fibrin affinity matrix. […] FBB was used to equilibrate and wash the column. Following warming of the column to 22° C., the column was washed with FBB until absorbance at 280 nm (A280) was less than 0.01, and bound protein eluted with 0.05M Tris-HCl, 0.5M NaCl, 6M urea buffer, pH 7.6.
The module (500 μg/1.0 ml) was incubated for 4 hours (while rotating) at 4° C. in the presence of 1.0 ml fibrin-SEPHAROSE™ (5 mg fibrin/ml SEPHAROSE™ beads) equilibrated in […] Tris-HCl, 0.1M NaCl buffer, pH 7.6.
The 11 KDa peptide (50 μg/0.206 ml) was radiolabeled using the IODO-BEAD method (Pierce Chemical). The peptide was added to one IODO-BEAD in the presence of 100 μCi ^125 I (17.4 Ci/mg, New England Nuclear) and incubated on ice for 10 minutes. […]

fibrin [2] = test: ELISA: competitive inhibition of fibronectin binding to fibrin by type 1 recombinant modules; conditions: up to 5,000-50,000 molar excess compared to Fn
Description: Fibrin-binding activity was also assessed by an ELISA. Fn was reacted with fibrin-coated microtiter plates and bound Fn was determined by incubation with a polyclonal rabbit anti-Fn antiserum followed by alkaline phosphatase-labeled anti-rabbit Ig. […] Thus, on a mole-per-mole basis, assuming complete attachment of all the fibrinogen applied to the polystyrene plate, total proteolytic conversion to fibrin, and accessibility of the binding sites, 0.8 moles of Fn per mole of fibrin were required to achieve maximum binding (assuming a molecular weight of 340 kDa for the fibrin hexamer and 440 kDa for the Fn dimer).
The recombinant Fn modules were used to inhibit the binding of Fn to the fibrin-coated microtiter plates. […] At this saturating concentration, the binding of Fn to fibrin was inhibited by 70%.

fibrin [3] = conditions: 0-10 μM competitor, biotinylated Fn 2.3 nM
Description: Since the anti-Fn detection system described for the ELISA above could not be used in Fn competition assays employing the intact Fn molecule or the 25.8 kDa proteolytic fragment, purified Fn was biotinylated using water soluble NHS-LC-Biotin (Pierce Chemm. Co.; according to the manufacturer's instructions) and binding to fibrin detected by alkaline phosphatase conjugated streptavidin (diluted 1/500 in FBBT/BSA) for 1 hour at 22° C., followed by the addition of p-nitrophenyl phosphate, as described above. To ensure that the biotinylation of the Fn had not affected its ability to bind to fibrin, fibrin-binding activity was tested by incubating increasing concentrations of biotinylated Fn (10-300 ng/0.1 ml FBB) with the fibrin-coated wells (200 ng) and detected (see FIG. 28A) using alkaline phosphatase-conjugated streptavidin and the reaction developed as described for Direct Elisa.
To compare the relative fibrin-binding affinities of the ^4 F1.^5 F1 recombinant module pair and the 25.9 kDa proteolytic fragment (^1 F1-^5 F1) with that of the native Fn molecule, these purified proteins were competed with biotinylated plasma Fn for binding to fibrin coated wells and the extent of inhibition of binding assessed by incubation with alkaline phosphatase-conjugated streptavidin. […] Biotinylated Fn (100 ng/0.1 ml FBB: 2.3 nM) was combined with increasing concentrations (0-10 μM) of either unlabeled Fn, the 25.9 kDa proteolytic fragment, or the separate ^4 F1.^5 F1, and ^10 F1 recombinant modules and incubated with the fibrin-coated microtiter wells for 1 hour at 22° C. […] Bound biotinylated Fn was quantitated as described above.

fibrin [4] = conditions: Husain et al. 1981; cited from earlier work

% of protein that did not bind to fibrin-Sepharose (unbound fraction) (fibrin [1]) [%]	binding to fibrin-Sepharose (fibrin [1])	inhibition of the binding of Fn to fibrin (non-binding modules) (fibrin [2]) [%]	inhibition of biotinylated Fn binding (non-fibrin-binding modules) (fibrin [3]) [%]	Molecule	arginine concentration eluting from solid phase fibrin (fibrin [4]) [mM]
~100	none was present	< 20	15	^1 F1.^2 F1: recombinant fibronectin module pair, first and second type 1 modules, amino acids 1-106; negative control (protein, N-terminal pyroglutamate; the major species lacks the NH2-terminal Gln-Ala dipeptide and its new N-terminal Gln is also pyroglutamate, recombinant fibronectin module pair, first and second type 1 modules, amino acids 1-106; negative control) QAQQMVQPQSPVAVSQSKPGCYDNGKHYQINQQWERTYLGNALVCTCYGGSRGFNCESKPEAEETCFDKYTGNTYRVGDTYERPKDSMIWDCTCIGAGRGRISCTI	–
–	–	–	–	tPA preparation of Husain et al.: high-affinity plasminogen activator preparation of Husain et al. (1981) (protein, UniProt P00750 36-562, looked up) Tissue-type plasminogen …: SYQVICRDEKTQMIYQQHQSWLRPVLRSNRVEYCWCNSGRAQCHSVPVKSCSEPRCFNGGTCQQALYFSDFVCQCPEGFAGKCCEIDTRATCYEDQGISYRGTWSTAESGAECTNWNSSALAQKPYSGRRPDAIRLGLGNHNYCRNPDRDSKPWCYVFKAGKYSSEFCSTPACSEGNSDCYFGNGSAYRGTHSLTESGASCLPWNSMILIGKVYTAQNPSAQALGLGKHNYCRNPDGDAKPWCHVLKNRRLTWEYCDVPSCSTCGLRQYSQPQFRIKGGLFADIASHPWQAAIFAKHRRSPGERFLCGGILISSCWILSAAHCFQERFPPHHLTVILGRTYRVVPGEEEQKFEVEKYIVHKEFDDDTYDNDIALLQLKSDSSRCAQESSVVRTVCLPPADLQLPDWTECELSGYGKHEALSPFYSERLKEAHVRLYPSSRCTSQHLLNRTVTDNMLCAGDTRSGGPQANLHDACQGDSGGPLVCLNDGRMTLVGIISWGLGCGQKDVPGVYTKVTNYLDWIRDNMRP	0.2
–	–	< 20	–	^1 F1: recombinant first type 1 module of fibronectin, amino acids 1-61 (protein, not fully specified; also: major species lacks N-terminal Gln-Ala, its new N-terminal Gln3 is pyroglutamate) [pGlu]AQQMVQPQSPVAVSQSKPGCYDNGKHYQINQQWERTYLGNALVCTCYGGSRGFNCESKPE	–
